T1: human VEGFR-3-Ig (human, UniProt P35916 25-775)
T1 construct: extracellular domain; also called hVEGFR-3; soluble VEGFR-3; not shown: immunoglobulin fusion part
T1 sequence (looked up): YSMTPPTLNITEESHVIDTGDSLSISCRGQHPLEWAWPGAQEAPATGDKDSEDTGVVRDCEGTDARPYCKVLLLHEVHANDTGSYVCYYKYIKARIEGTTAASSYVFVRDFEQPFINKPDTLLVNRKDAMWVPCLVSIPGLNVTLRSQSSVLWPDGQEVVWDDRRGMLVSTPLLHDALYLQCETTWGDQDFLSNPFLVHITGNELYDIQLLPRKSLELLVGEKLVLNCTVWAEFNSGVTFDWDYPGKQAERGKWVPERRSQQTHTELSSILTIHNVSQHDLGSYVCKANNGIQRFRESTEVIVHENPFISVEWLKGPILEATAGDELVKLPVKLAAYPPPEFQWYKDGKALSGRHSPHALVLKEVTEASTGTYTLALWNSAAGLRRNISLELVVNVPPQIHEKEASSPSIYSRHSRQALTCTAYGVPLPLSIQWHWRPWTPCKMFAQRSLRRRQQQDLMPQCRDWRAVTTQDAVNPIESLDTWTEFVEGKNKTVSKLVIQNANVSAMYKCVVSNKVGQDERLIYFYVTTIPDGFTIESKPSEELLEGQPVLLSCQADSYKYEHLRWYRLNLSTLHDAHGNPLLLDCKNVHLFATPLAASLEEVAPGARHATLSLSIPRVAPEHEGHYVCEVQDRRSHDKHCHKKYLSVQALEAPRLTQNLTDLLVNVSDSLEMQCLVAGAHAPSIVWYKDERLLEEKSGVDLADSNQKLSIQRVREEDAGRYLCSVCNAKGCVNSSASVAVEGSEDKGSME


What was measured:
[1] = target: T2, human VEGFR-2 immunoglobulin fusion protein (chimeric receptor protein immobilized on the biosensor chip) (human, UniProt P35968 20-764, limits assumed); test: BIAcore 2000 biosensor, receptor-Ig amine-coupled to CM5 chip, ligand injected
T2 construct: also called hVEGFR-2; not shown: immunoglobulin fusion part
T2 sequence (P35968 20-764 limits assumed, change not shown): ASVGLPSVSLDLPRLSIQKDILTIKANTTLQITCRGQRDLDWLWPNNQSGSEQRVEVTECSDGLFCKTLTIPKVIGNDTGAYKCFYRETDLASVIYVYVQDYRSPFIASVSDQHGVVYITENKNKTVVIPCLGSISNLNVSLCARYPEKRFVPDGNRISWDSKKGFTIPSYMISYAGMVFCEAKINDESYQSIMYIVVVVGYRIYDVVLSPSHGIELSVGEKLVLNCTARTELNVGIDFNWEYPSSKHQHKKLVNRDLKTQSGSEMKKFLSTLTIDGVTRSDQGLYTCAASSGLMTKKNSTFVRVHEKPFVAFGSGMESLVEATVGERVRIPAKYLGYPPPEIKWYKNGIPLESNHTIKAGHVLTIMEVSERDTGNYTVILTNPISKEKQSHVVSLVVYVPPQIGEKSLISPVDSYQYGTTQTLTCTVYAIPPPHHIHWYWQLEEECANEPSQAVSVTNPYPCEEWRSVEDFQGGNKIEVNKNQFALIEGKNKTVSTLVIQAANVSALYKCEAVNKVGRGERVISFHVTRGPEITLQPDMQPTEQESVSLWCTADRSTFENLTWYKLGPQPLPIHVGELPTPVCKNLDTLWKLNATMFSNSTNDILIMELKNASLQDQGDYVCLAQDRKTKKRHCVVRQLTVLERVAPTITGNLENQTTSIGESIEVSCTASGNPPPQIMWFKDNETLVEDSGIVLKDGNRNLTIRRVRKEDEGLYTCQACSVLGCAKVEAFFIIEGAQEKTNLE

human VEGFR-3-Ig = target: T1, human VEGFR-3-Ig; test: BIAcore 2000 biosensor, receptor-Ig on CM5 chip, ligand injected, 1:1 Langmuir global fit
Protocol: (§1) Chimeric receptor proteins were immobilized onto a carboxymethylated dextran surface. Growth factors were injected over the surface at a flow rate of 20 μl/min at the indicated concentrations.
(§2) Following immobilization, residual activated ester groups were blocked by treatment with 1 M ethanolamine hydrochloride pH 8.5 followed by washing with 10 mM diethylamine to remove non-covalently bound material. […] Samples were diluted in running buffer (10 mM HEPES pH 7.4, 150 mM NaCl, 3.4 mM EDTA, 0.005% Tween 20).

[2] = target: T2, human VEGFR-2 immunoglobulin fusion …; test: as above
Protocol: as §1, §2

| Binder | binding result [1] | Kd (human VEGFR-3-Ig) | koff (human VEGFR-3-Ig) | kon (human VEGFR-3-Ig) | Kd [2] | koff [2] | kon [2] |
| --- | --- | --- | --- | --- | --- | --- | --- |
| recombinant human VEGF-C156S (Thr103 to Ile225) (ligand, also called hVEGF-C156S; VEGF-C56S) TEETIKFAAAHYNTEILKSIDNEWRKTQCMPREVCIDVGKEFGVATNTFFKPPSVSVYRCGGCCNSEGLQCMNTSTSYLSKTLFEITVPLSQGPKPVTISFANHTSCRCMSKLDVYRQVHSII | no binding | 115 nM | 0.0004 s⁻¹ | 3500 M⁻¹ s⁻¹ | – | – | – |
| recombinant human VEGF-C (Thr103 to Leu215) (ligand, UniProt P49767 103-215, looked up, range 103-215; Produced and purified as in Joukov et al. 1997; also called hVEGF-C; wild type VEGF-C) TEETIKFAAAHYNTEILKSIDNEWRKTQCMPREVCIDVGKEFGVATNTFFKPPCVSVYRCGGCCNSEGLQCMNTSTSYLSKTLFEITVPLSQGPKPVTISFANHTSCRCMSKL | – | 4.4 nM | 0.000605 s⁻¹ | 136000 M⁻¹ s⁻¹ | 22 nM | 0.00123 s⁻¹ | 55000 M⁻¹ s⁻¹ |

Source: patent US20060269548A1 (published 2006)
